Measurements taken from patent publication US20240392271A1, “ENGINEERED CASX REPRESSOR SYSTEMS” (Scribe Therapeutics Inc., priority 2021, published 2024).
Where a chain is given by its changes, count along the chain named.

How the values were obtained:
[1] = test system: human B2M locus; assay: Editing (indel rate by NGS) at the B2M locus by catalytically-dead CasX variants (Example 8); assay type: cell-based; conditions: HEK293T, B2M-targeting spacer 7.37, six days after transfection
[2] = test system: endogenous B2M (beta-2-microglobulin) gene; assay: B2M protein expression by HLA antibody flow cytometry, dXR constructs (Example 1, Table 14); assay type: cell-based, human; conditions: for % cells expressing B2M protein: HEK293T cells, % of cells counted that were positive, biological triplicates
Excerpt: dXR variant plasmids encoding constructs having the configuration of U6-gRNA+Ef1α-NLS-GGS-dCasX491-GGS-KRAB variant-NLS (dCasX491 refers to catalytically-dead CasX 491), were transiently transfected into HEK293T cells in an arrayed 96-well format. These constructs also contained a 2× FLAG sequence, as well as sequences encoding either a gRNA scaffold 174 (SEQ ID NO: 2238) having a spacer (spacer 7.37) targeting the endogenous B2M (beta-2-microglobulin) gene or a non-targeting control (spacer 0.0), which were all cloned upstream of a P2A-puromycin element on the plasmid. Four different effector domains were tested in addition to the “naked” dCasX491 (KRAB variant domains listed in Table 9; spacer sequences listed in Table 10; sequences of additional elements listed in Table 11). The corresponding protein sequences of the dXR molecule are listed in Table 13, and the generic configuration of the dXR molecule is illustrated in FIG. 38. Positive and negative controls based on a catalytically-dead Cas9 nuclease (with or without a ZNF10 repressor) with a B2M-targeting gRNA (spacer 7.14) or a non-targeting gRNA control (spacer 0.0) were included, along with a catalytically-active CasX 491 and gRNA with the same 7.37 and 0.0 spacers. Two days after transfection, total RNA was harvested, and reverse transcribed to generate a cDNA library. Changes in gene expression were calculated by performing qPCR on the targeted gene and a housekeeping gene as reference. Relative gene expression represents the amount of target-specific RNA relative to a reference gene normalized to the non-targeting guide condition for two biological replicates. In addition to the wells used for RNA measurements, a separate set of wells was harvested seven days post-transfection and analyzed for B2M protein expression. Expression of B2M protein was determined by using an antibody that detects the B2M-dependent HLA protein complex on the cell surface. […]

[3] = test system: HBEGF locus; assay type: cell-based, human; conditions: dCasX491-KRAB lentiviral library, spacer 34.28, HEK293T, 2 ng/ml diphtheria toxin 48 hours
[4] = Editing assays comparing gRNA scaffolds; conditions: compared with gRNA scaffold 174

B1: dCasX527: catalytically-dead CasX 527, SEQ ID NO: 24 (protein)
chain: QEIKRINKIRRRLVKDSNTKKAGKTRGPMKTLLVRVMTPDLRERLENLRKKPENIPQPISNTSRANLNKLLTDYTEMKKAILHVYWEEFQKDPVGLMSRVAQPASKKIDQNKLKPEMDEKGNLTTAGFACSQCGQPLFVYKLEQVSEKGKAYTNYFGRCNVAEHEKLILLAQLKPEKDSDEAVTYSLGKFGQRALDFYSIHVTKESTHPVKPLAQIAGNRYASGPVGKALSDACMGTIASFLSKYQDIIIEHQKVVKGNQKRLESLRELAGKENLEYPSVTLPPQPHTKEGVDAYNEVIARVRMWVNLNLWQKLKLSRDDAKPLLRLKGFPSFPLVERQANEVDWWDMVCNVKKLINEKKEDGKVFWQNLAGYKRQEALRPYLSSEEDRKKGKKFARYQLGDLLLHLEKKHGEDWGKVYDEAWERIDKKVEGLSKHIKLEEERRSEDAQSKAALTDWLRAKASFVIEGLKEADKDEFCRCELKLQKWYGDLRGKPFAIEAENSILDISGFSKQYNCAFIWQKDGVKKLNLYLIINYFKGGKLRFKKIKPEAFEANRFYTVINKKSGEIVPMEVNFNFDDPNLIILPLAFGKRQGREFIWNDLLSLETGSLKLANGRVIEKTLYNRRTRQDEPALFVALTFERREVLDSSNIKPMNLIGVARGENIPAVIALTDPEGCPLSRFKDSLGNPTHILRIGESYKEKQRTIQAKKEVEQRRAGGYSRKYASKAKNLADDMVRNTARDLLYYAVTQDAMLIFANLSRGFGRQGKRTFMAERQYTRMEDWLTAKLAYEGLSKTYLSKTLAQYTSKTCSNCGFTITSADYDRVLEKLKKTATGWMTTINGKELKVEGQITYYNRYKRQNVVKDLSVELDRLSEESVNNDISSWTKGRSGEALSLLKKRFSHRPVQEKFVCLNCGFETHAAEQAALNIARSWLFLRSQEYKKYQTNKTTGNTDKRAFVETWQSFYRKKLKEVWKPAV
In the case of B1, the “percent editing at the B2M locus measured as indel rate by NGS” value (“percent editing at the B2M locus” below) [1] is reported as “did not exhibit editing”.

B2: dCasX491: catalytically-dead CasX 491, SEQ ID NO: 18 (protein)
chain: QEIKRINKIRRRLVKDSNTKKAGKTGPMKTLLVRVMTPDLRERLENLRKKPENIPQPISNTSRANLNKLLTDYTEMKKAILHVYWEEFQKDPVGLMSRVAQPASKKIDQNKLKPEMDEKGNLTTAGFACSQCGQPLFVYKLEQVSEKGKAYTNYFGRCNVAEHEKLILLAQLKPEKDSDEAVTYSLGKFGQRALDFYSIHVTKESTHPVKPLAQIAGNRYASGPVGKALSDACMGTIASFLSKYQDIIIEHQKVVKGNQKRLESLRELAGKENLEYPSVTLPPQPHTKEGVDAYNEVIARVRMWVNLNLWQKLKLSRDDAKPLLRLKGFPSFPLVERQANEVDWWDMVCNVKKLINEKKEDGKVFWQNLAGYKRQEALRPYLSSEEDRKKGKKFARYQLGDLLLHLEKKHGEDWGKVYDEAWERIDKKVEGLSKHIKLEEERRSEDAQSKAALTDWLRAKASFVIEGLKEADKDEFCRCELKLQKWYGDLRGKPFAIEAENSILDISGFSKQYNCAFIWQKDGVKKLNLYLIINYFKGGKLRFKKIKPEAFEANRFYTVINKKSGEIVPMEVNFNFDDPNLIILPLAFGKRQGREFIWNDLLSLETGSLKLANGRVIEKTLYNRRTRQDEPALFVALTFERREVLDSSNIKPMNLIGVARGENIPAVIALTDPEGCPLSRFKDSLGNPTHILRIGESYKEKQRTIQAKKEVEQRRAGGYSRKYASKAKNLADDMVRNTARDLLYYAVTQDAMLIFANLSRGFGRQGKRTFMAERQYTRMEDWLTAKLAYEGLSKTYLSKTLAQYTSKTCSNCGFTITSADYDRVLEKLKKTATGWMTTINGKELKVEGQITYYNRYKRQNVVKDLSVELDRLSEESVNNDISSWTKGRSGEALSLLKKRFSHRPVQEKFVCLNCGFETHAAEQAALNIARSWLFLRSQEYKKYQTNKTTGNTDKRAFVETWQSFYRKKLKEVWKPAV
With B2 the “% cells expressing B2M protein” value ([2]; B2M-targeting spacer 7.37) was 85.70%, the “cells negative for the B2M protein” value ([2]; HEK293T, seven days post-transfection, B2M-targeting gRNA, HLA flow cytometry) was roughly 10% and the “% cells expressing B2M protein” value ([2]; non-targeting spacer 0.0) was 95.90%. For the same molecule, the “percent editing at the B2M locus” value [1] was “did not exhibit editing”.

B3: DOMAIN_26749: KRAB domain derived from the king cobra, Ophiophagus hannah, SEQ ID NO: 57755; top 10 (protein)
chain: STPVTFEDVVVYFTAAEWVHLTNWQRDFYQAVMMETYELVASVAGDGVPMAEDEEGGVERPVWQYIPRGKRRRKTPQPRAD
modifications: Ophiophagus hannah
With B3 the “log2 (fold change) in abundance of the KRAB domain before and after selection” value [3] was “highest log (fold change)”.

B4: 316 scaffold: chimeric RNA scaffold: scaffold 235 with extended stem loop of scaffold 174, SEQ ID NO: 59352, 89 nucleotides (nucleic acid)
guide: ACUGGCGCUUCUAUCUGAUUACUCUGAGCGCCAUCACCAGCGACUAUGUCGUAGUGGGUAAAGCUCCCUCUUCGGAGGGAGCAUCAGAG
modifications: listed as RNA, further chemistry not given here
With B4 the “performance in editing assays” value [4] was “comparably or more favorably than gRNA scaffold 174”.

B5: dCasX668: catalytically-dead CasX 668, SEQ ID NO: 59355 (protein)
chain: QEIKRINKIRRRLVKDSNTKKAGKTRGPMKTLLVRVMTPDLRERLENLRKKPENIPQPISNTSRANLNKLLTDYTEMKKAILHVYWEEFQKDPVGLMSRVAQPASKKIDQNKLKPEMDEKGNLTTAGFACSQCGQPLFVYKLEQVSEKGKAYTNYFGRCNVAEHEKLILLAQLKPEKDSDEAVTYSLGKFGQRALDFYSIHVTKESTHPVKPLAQIAGNRYASSPVGKALSDACMGTIASFLSKYQDIIIEHQKVVKGNQKRLESLRELAGKENLEYPSVTLPPQPHTKEGVDAYNEVIARVRMWVNLNLWQKLKLSRDDAKPLLRLKGFPSFPLVERQANEVDWWDMVCNVKKLINEKKEDGKVFWQNLAGYKRQEALRPYLSSEEDRKKGKKFARYQLGDLLLHLEKKHGEDWGKVYDEAWERIDKKVEGLSKHIKLEEERRSEDAQSKAALTDWLRAKASFVIEGLKEADKDEFCRCELKLQKWYGDLRGKPFAIEAENSILDISGFSKQYNCAFIWQKDGVKKLNLYLIINYFKGGKLRFKKIKPEAFEANRFYTVINKKSGEIVPMEVNFNFDDPNLIILPLAFGKRQGREFIWNDLLSLETGSLKLANGRVIEKTLYNRRTRQDEPALFVALTFERREVLDSSNIKPMNLIGVARGENIPAVIALTDPEGCPLSRFKDSLGNPTHILRIGESYKEKQRTIQAKKEVEQRRAGGYSRKYASKAKNLADDMVRNTARDLLYYAVTQDAMLIFANLSRGFGRQGKRTFMAERQYTRMEDWLTAKLAYEGLPSKTYLSKTLAQYTSKTCSNCGFTITSADYDRVLEKLKKTATGWMTTINGKELKVEGQITYYNRYKRQNVVKDLSVELDRLSEESVNNDISSWTKGRSGEALSLLKKRFSHRPVQEKFVCLNCGFETHAAEQAALNIARSWLFLRSQEYKKYQTNKTTGNTDKRAFVETWQSFYRKKLKEVWKPAV
In the case of B5, the “percent editing at the B2M locus” value [1] is reported as “did not exhibit editing”.

B6: dCasX676: catalytically-dead CasX 676, SEQ ID NO: 59357 (protein)
chain: B5 chain with L169K
With B6 the “percent editing at the B2M locus” value [1] was “did not exhibit editing”.
